Target: 53BP1 fragment (a.a. 1221-1718) fused to an adenylate cyclase fragment (two-hybrid) (UniProt Q12888)
Test: cell-based or functional assay

| Substance | Experiment 1 Average Enrichment [log2] | Experiment 1 Rep 1 Enrichment [log2] | Experiment 1 Rep 2 Enrichment [log2] | Experiment 2 Average Enrichment [log2] | Experiment 2 Rep 1 Enrichment [log2] | Experiment 2 Rep 2 Enrichment [log2] | Percent GFP Positive Rep 1 [%] | Percent GFP Positive Rep 2 [%] | Percent GFP Positive Rep 3 [%] |
| --- | --- | --- | --- | --- | --- | --- | --- | --- | --- |
| i53 + S49N two-hybrid fusion (designed binder) | 0.04 | 0.31 | -0.23 | -0.35 | -0.59 | -0.11 |  |  |  |
| i53 + E16H two-hybrid fusion (designed binder) | 0.03 | 0 | 0.05 | -0.13 | -0.21 | -0.05 |  |  |  |
| i53 + S57A two-hybrid fusion (designed binder) | 0.37 | 0.29 | 0.46 | 0.03 | -0.03 | 0.08 |  |  |  |
| i53 + R54C two-hybrid fusion (designed binder) | 0.06 | 0.24 | -0.12 | -0.07 | -0.43 | 0.29 |  |  |  |
| i53 + P38S two-hybrid fusion (designed binder) | 0.22 | 0.19 | 0.25 | 0.27 | 0.56 | -0.02 |  |  |  |
| i53 + K33Y two-hybrid fusion (designed binder) | 1.02 | 0.63 | 1.41 | 0.98 | 1.03 | 0.94 |  |  |  |
| i53 + P38Y two-hybrid fusion (designed binder) | 0.74 | 1.79 | -0.3 | 0.31 | 0.66 | -0.03 |  |  |  |
| i53 + I13F two-hybrid fusion (designed binder) | 0.53 | 1.04 | 0.03 | -0.09 | -0.26 | 0.07 |  |  |  |
| i53 + L67M two-hybrid fusion (designed binder) | 1.03 | 0.98 | 1.07 | 0.77 | 0.65 | 0.88 |  |  |  |
| i53 + Q41V two-hybrid fusion (designed binder) | -0.14 | -0.37 | 0.1 | 0.05 | 0.13 | -0.03 |  |  |  |
| i53 + R42H two-hybrid fusion (designed binder) | 2.04 | 2.18 | 1.89 | 1.03 | 0.89 | 1.16 |  |  |  |
| i53 + A28Q two-hybrid fusion (designed binder) | 0.44 | 0.47 | 0.42 | 0.14 | 0.59 | -0.31 |  |  |  |
| i53 + K33R two-hybrid fusion (designed binder) | 0.42 | 0.73 | 0.1 | 0.37 | 0.64 | 0.1 |  |  |  |
| i53 + S65Q two-hybrid fusion (designed binder) | 0 | -0.02 | 0.02 | 0.12 | 0.01 | 0.24 |  |  |  |
| i53 + E16T two-hybrid fusion (designed binder) | 0.88 | 1.12 | 0.64 | 0.3 | 0.27 | 0.33 |  |  |  |
| i53 + T14H two-hybrid fusion (designed binder) | 2.56 | 2.63 | 2.5 | 1.65 | 1.47 | 1.84 |  |  |  |
| i53 + D21E two-hybrid fusion (designed binder) | 0.51 | 0.2 | 0.82 | -0.23 | -0.63 | 0.16 |  |  |  |
| i53 + S49G two-hybrid fusion (designed binder) | 0.02 | 0.27 | -0.23 | -0.31 | -0.57 | -0.05 |  |  |  |

| Substance | Experiment 1 Average Enrichment [log2] | Experiment 1 Rep 1 Enrichment [log2] | Experiment 1 Rep 2 Enrichment [log2] | Experiment 2 Average Enrichment [log2] | Experiment 2 Rep 1 Enrichment [log2] | Experiment 2 Rep 2 Enrichment [log2] | Percent GFP Positive Rep 1 [%] | Percent GFP Positive Rep 2 [%] | Percent GFP Positive Rep 3 [%] |
| --- | --- | --- | --- | --- | --- | --- | --- | --- | --- |
| i53 + N25D two-hybrid fusion (designed binder) | 0.33 | 0.11 | 0.54 | 0.45 | 0.49 | 0.41 |  |  |  |
| i53 + D39G two-hybrid fusion (designed binder) | -0.21 | -0.2 | -0.22 | 0.06 | 0.6 | -0.49 |  |  |  |
| i53 + P38N two-hybrid fusion (designed binder) | 1.02 | 2.28 | -0.25 | -1.49 | -1.91 | -1.07 |  |  |  |
| i53 + D32E two-hybrid fusion (designed binder) | 0.21 | 0.41 | 0 | -0.19 | -0.11 | -0.28 |  |  |  |
| i53 + N25S two-hybrid fusion (designed binder) | 0.26 | 0.18 | 0.34 | 0.33 | 0.27 | 0.38 |  |  |  |
| i53 + K29H two-hybrid fusion (designed binder) | 0.17 | 0.02 | 0.32 | -2.73 | -3.26 | -2.2 |  |  |  |
| i53 + E16N two-hybrid fusion (designed binder) | 0.11 | -0.32 | 0.54 | 0.26 | 0.34 | 0.18 |  |  |  |
| i53 + L67K two-hybrid fusion (designed binder) | 2.01 | 2.08 | 1.93 | 0.89 | 1.4 | 0.39 | 24.2 | 11.2 | 21.5 |
| i53 + L73M two-hybrid fusion (designed binder) | 2.61 | 2.69 | 2.52 | 1.43 | 1.58 | 1.28 | 36.2 | 29.2 | 39.5 |
| i53 + D32R two-hybrid fusion (designed binder) | 0.03 | 0.61 | -0.54 | -0.46 | -0.53 | -0.39 |  |  |  |
| i53 + T7I two-hybrid fusion (designed binder) | 1.66 | 1.7 | 1.63 | 1.03 | 1.04 | 1.02 |  |  |  |
| i53 + D39S two-hybrid fusion (designed binder) | -1.51 | -2.04 | -0.99 | 0.04 | 0.16 | -0.08 |  |  |  |
| i53 + K48N two-hybrid fusion (designed binder) | -0.04 | -0.15 | 0.08 | 0.06 | 0.09 | 0.03 |  |  |  |
| i53 + E18F two-hybrid fusion (designed binder) | 0.51 | 0.09 | 0.93 | 0.54 | 0.22 | 0.87 |  |  |  |
| i53 + S49L two-hybrid fusion (designed binder) | 1 | 0.85 | 1.15 | 0.88 | 0.97 | 0.8 | 18.8 | 13.6 | 17.7 |
| i53 + T7V two-hybrid fusion (designed binder) | 0.33 | 0.24 | 0.42 | 0.02 | -0.04 | 0.09 |  |  |  |
| i53 + E18L two-hybrid fusion (designed binder) | 0.75 | 0.75 | 0.76 | 0.66 | 0.62 | 0.71 |  |  |  |

— patent US20230135471A1, “UBIQUITIN VARIANTS WITH IMPROVED AFFINITY FOR 53BP1” (Integrated DNA Technologies, Inc., priority 2021, published 2023)
